According to patent US20220017622A1 (Pfizer, published 2022):
Positions count from the first letter of the chain named.

Assays:
[1] = biological target: T1, human B7-H4 extracellular domain (human, UniProt Q7Z7D3 29-258); experiment: SPR 37 C; IgG1 on anti-hFc chip, ECD analyte;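 further: antibodies captured, then B7-H4 ECD injected at five 3-fold dilutions from 300 nM, 65 s association and 600 s dissociation, fitted to a 1:1 Langmuir model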
T1 construct: Soluble ECD used as SPR analyte; also called huB7-H4 ECD; huB7-H4
T1 sequence: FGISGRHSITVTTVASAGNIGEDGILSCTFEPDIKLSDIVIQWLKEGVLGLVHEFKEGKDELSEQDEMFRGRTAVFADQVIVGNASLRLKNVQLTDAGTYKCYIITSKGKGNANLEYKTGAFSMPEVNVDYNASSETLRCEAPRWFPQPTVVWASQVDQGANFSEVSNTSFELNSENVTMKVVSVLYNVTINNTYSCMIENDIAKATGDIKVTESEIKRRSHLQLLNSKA

[2] = biological target: T2, cyno B7-H4 extracellular domain (cyno, UniProt Q7Z7D3 29-258 (human entry)); experiment: SPR 37 C; IgG1 on anti-hFc chip, ECD analyte
T2 construct: Soluble ECD used as SPR analyte; also called cyB7-H4 ECD; cyB7-H4
T2 sequence: T1 sequence with L49I

[3] = biological target: T3, mouse B7-H4 extracellular domain (mouse, UniProt Q7TSP5 29-258); experiment: SPR 37 C; IgG1 on anti-hFc chip, ECD analyte
T3 construct: Soluble ECD used as SPR analyte; also called muB7-H4 ECD; muB7-H4
T3 sequence: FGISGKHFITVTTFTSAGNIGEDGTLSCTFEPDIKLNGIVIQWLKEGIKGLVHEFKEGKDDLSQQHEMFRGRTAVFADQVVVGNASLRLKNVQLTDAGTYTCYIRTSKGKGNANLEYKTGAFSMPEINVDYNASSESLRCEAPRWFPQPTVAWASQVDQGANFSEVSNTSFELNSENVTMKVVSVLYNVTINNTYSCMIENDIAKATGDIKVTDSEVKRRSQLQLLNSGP

human B7-H4 on cells = biological target: T4, human B7-H4 on cells (human, UniProt Q7Z7D3 25-282); experiment: cell-based or functional assay
T4 sequence (looked up): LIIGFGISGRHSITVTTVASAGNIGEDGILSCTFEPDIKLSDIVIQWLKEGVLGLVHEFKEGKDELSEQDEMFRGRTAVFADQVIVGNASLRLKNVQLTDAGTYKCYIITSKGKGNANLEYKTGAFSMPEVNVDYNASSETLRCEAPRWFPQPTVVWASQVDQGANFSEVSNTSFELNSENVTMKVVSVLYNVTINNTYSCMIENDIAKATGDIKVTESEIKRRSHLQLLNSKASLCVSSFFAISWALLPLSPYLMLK

[4] = biological target: T1, human B7-H4 extracellular domain; experiment: SPR 25 C; bispecific on anti-hFc chip, ECD analyte
[5] = biological target: T2, cyno B7-H4 extracellular domain; experiment: SPR 25 C; bispecific on anti-hFc chip, ECD analyte
[6] = biological target: T3, mouse B7-H4 extracellular domain; experiment: SPR 25 C; bispecific on anti-hFc chip, ECD analyte
[7] = biological target: T1, human B7-H4 extracellular domain; experiment: SPR 37 C; bispecific on anti-hFc chip, ECD analyte
[8] = biological target: T2, cyno B7-H4 extracellular domain; experiment: SPR 37 C; bispecific on anti-hFc chip, ECD analyte
[9] = biological target: T5, human CD3 (delta/epsilon heterodimer) (human, UniProt P07766 23-126; P04234 22-105); experiment: SPR 25 C; CD3 delta/epsilon on anti-His chip, bispecific analyte
T5 construct: captured on an anti-His chip, so it carries a His tag; also called huCD3

[10] = biological target: T6, cyno CD3 (delta/epsilon heterodimer) (cyno, UniProt Q95LI5 22-117; Q95LI8 22-105); experiment: as above
T6 construct: also called cyCD3

[11] = biological target: T7, human B7-H4 on human tumor cell lines (human, UniProt Q7Z7D3 25-282); experiment: cell-based or functional assay
T7 sequence (looked up): T4 sequence (looked up)

T6 sequence (Q95LI5 22-117, stated change not applied, chain 1 of 2): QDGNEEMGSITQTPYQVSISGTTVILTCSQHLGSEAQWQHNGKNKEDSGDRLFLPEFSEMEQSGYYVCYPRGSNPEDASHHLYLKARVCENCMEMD
T6 sequence (Q95LI8 22-105, stated change not applied, chain 2 of 2): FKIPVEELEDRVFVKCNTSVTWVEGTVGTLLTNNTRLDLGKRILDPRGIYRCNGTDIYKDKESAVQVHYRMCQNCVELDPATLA
T5 sequence (P07766 23-126, stated change not applied, chain 1 of 2): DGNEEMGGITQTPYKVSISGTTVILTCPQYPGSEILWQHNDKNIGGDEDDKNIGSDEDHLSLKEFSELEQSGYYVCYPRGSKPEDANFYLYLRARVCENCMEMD
T5 sequence (P04234 22-105, stated change not applied, chain 2 of 2): as the sequence (Q95LI8 22-105, stated change not applied, chain 2 of 2) above, with V5I, K15N, V20I, T32S, N33D, N34I, A64T, N74S, L83V counted along it

B1: B7-H4 antibody 0052 (antibody, human IgG1, kappa, V domains shown)
VH: QVQLQQWGAGLLKPSETLSLTCAVYGGSFSGYYWNWIRQPPGKGLEWIGEINHSGSTKYNPSLKSRVTISGDTSKNQFSLKLNSVTAADTAVYYCVRGLYNWNVDSWGQGTLVTVSS
VL: DIQMTQSPSSLSASVGDRVTITCRASQGIRNDLGWYQQKPGKAPKRLIYVASSLQSGVPSRFSGSGSGTEFTLTISSLQPEDFATYYCLQHNSYPYTFGQGTKLEIKR
notes: IgG1 mAb format; parental; also called 28D10
In the case of B1, the Kd [1] is reported as 12.1 nM, the koff [1] is reported as 0.00565 s⁻¹ and the kon [1] is reported as 467000 M⁻¹ s⁻¹. For the same binder, the Kd [2] was 30.7 nM, the koff [2] was 0.00424 s⁻¹ and the kon [2] was 139000 M⁻¹ s⁻¹. The Kd [3] was 883 nM, the koff [3] was 0.126 s⁻¹ and the kon [3] was 143000 M⁻¹ s⁻¹.

B2: B7-H4xCD3 bispecific antibody 0080 (bispecific antibody, IgG2)
heavy 1: QVQLQQWGAGLLKPSETLPLTCAVYGGSFSGYYWNWIRQPPGKGLEWIGEINHSGSATYNPSLKSRVTISVDTSKNHFSLKLSSVTAADTAVYFCARGLYNWNVDHWGQGTLVTVSSASTKGPSVFPLAPCSRSTSESTAALGCLVKDYFPEPVTVSWNSGALTSGVHTFPAVLQSSGLYSLSSVVTVPSSNFGTQTYTCNVDHKPSNTKVDKTVERKCEVECPECPAPPVAGPSVFLFPPKPKDTLMISRTPEVTCVVVAVSHEDPEVQFNWYVDGVEVHNAKTKPREEQFNSTFRVVSVLTVVHQDWLNGKEYKCKVSNKGLPSSIEKTISKTKGQPREPQVYTLPPSREEMTKNQVSLTCEVKGFYPSDIAVEWESNGQPENNYKTTPPMLDSDGSFFLYSKLTVDKSRWQQGNVFSCSVMHEALHNHYTQKSLSLSPGK
light 1: DIQMTQSPSSLSASVGDRVTITCRASQGIRNDLGWYQQKPGKAPKRLIYAASSLQSGVPSRFSGSGSGTEFTLTISSLQPEDFATYYCLQHNSYPRTFGGGTKVEIKRTVAAPSVFIFPPSDEQLKSGTASVVCLLNNFYPREAKVQWKVDNALQSGNSQESVTEQDSKDSTYSLSSTLTLSKADYEKHKVYACEVTHQGLSSPVTKSFNRGEC
heavy 2: EVQLVESGGGLVQPGGSLRLSCAASGFTFSDYYMTWVRQAPGKGLEWVAFIRNQARGYTSDHNPSVKGRFTISRDNAKNSLYLQMNSLRAEDTAVYYCARDRPSYYVLDYWGQGTTVTVSSASTKGPSVFPLAPCSRSTSESTAALGCLVKDYFPEPVTVSWNSGALTSGVHTFPAVLQSSGLYSLSSVVTVPSSNFGTQTYTCNVDHKPSNTKVDKTVERKCRVRCPRCPAPPVAGPSVFLFPPKPKDTLMISRTPEVTCVVVAVSHEDPEVQFNWYVDGVEVHNAKTKPREEQFNSTFRVVSVLTVVHQDWLNGKEYKCKVSNKGLPSSIEKTISKTKGQPREPQVYTLPPSREEMTKNQVSLTCLVKGFYPSDIAVEWESNGQPENNYKTTPPMLDSDGSFFLYSRLTVDKSRWQQGNVFSCSVMHEALHNHYTQKSLSLSPGK
light 2: DIQMTQSPSSLSASVGDRVTITCTSSQSLFNVRSQKNYLAWYQQKPGKAPKLLIYWASTRESGVPSRFSGSGSGTDFTLTISSLQPEDFATYYCKQSYDLFTFGGGTKVEIKRTVAAPSVFIFPPSDEQLKSGTASVVCLLNNFYPREAKVQWKVDNALQSGNSQESVTEQDSKDSTYSLSSTLTLSKADYEKHKVYACEVTHQGLSSPVTKSFNRGEC
notes: Chains 1-2: B7-H4 arm; chains 3-4: CD3 arm; IgG2 EEE/RRR; also called anti-B7-H4 clone 7H7
With B2 the “T cell mediated tumor cell killing EC50, HCC1954-Luc” value (human B7-H4 on cells) was 36 nM, the Kd [4] was 2.39 nM and the koff [4] was 0.000692 s⁻¹. It also gave a kon [4] of 296000 M⁻¹ s⁻¹, a Kd [5] of 4.29 nM and a koff [5] of 0.000676 s⁻¹. It also gave a kon [5] of 157000 M⁻¹ s⁻¹, a Kd [6] of 74.8 nM and a koff [6] of 0.0138 s⁻¹. The kon [6] was 189000 M⁻¹ s⁻¹, the Kd [7] was 6.08 nM and the koff [7] was 0.00283 s⁻¹. For the same binder, the kon [7] was 465000 M⁻¹ s⁻¹, the Kd [8] was 12.8 nM and the koff [8] was 0.00282 s⁻¹. It also gave a kon [8] of 220000 M⁻¹ s⁻¹, a Kd [9] of 12.7 nM and a koff [9] of 0.00521 s⁻¹. The kon [9] was 411000 M⁻¹ s⁻¹, the Kd [10] was 13.3 nM and the koff [10] was 0.00493 s⁻¹. For the same binder, the kon [10] was 372000 M⁻¹ s⁻¹.

B3: B7-H4xCD3 bispecific antibody 1167 (bispecific antibody, IgG2)
heavy 1: EVQLLESGGGLVQPGGSLRLSCAASGFTFSSYAMSWVRQAPGKGLEWVSAISGGGGSTYYADSVKGRFTISRDNSKNTLYLQMNSLRAEDTAVYYCARDIQWYGESTLFDYWGQGTLVTVSSASTKGPSVFPLAPCSRSTSESTAALGCLVKDYFPEPVTVSWNSGALTSGVHTFPAVLQSSGLYSLSSVVTVPSSNFGTQTYTCNVDHKPSNTKVDKTVERKCEVECPECPAPPVAGPSVFLFPPKPKDTLMISRTPEVTCVVVAVSHEDPEVQFNWYVDGVEVHNAKTKPREEQFNSTFRVVSVLTVVHQDWLNGKEYKCKVSNKGLPSSIEKTISKTKGQPREPQVYTLPPSREEMTKNQVSLTCEVKGFYPSDIAVEWESNGQPENNYKTTPPMLDSDGSFFLYSKLTVDKSRWQQGNVFSCSVMHEALHNHYTQKSLSLSPGK
light 1: DIQMTQSPSSLSASVGDRVTITCRASQSTRSHLAWYQQKPGKAPKLLIYKASSLEGGVPSRFSGSGSGTDFTLTISSLQPEDFATYYCQQYGSYSRTFGQGTKVEIKRTVAAPSVFIFPPSDEQLKSGTASVVCLLNNFYPREAKVQWKVDNALQSGNSQESVTEQDSKDSTYSLSSTLTLSKADYEKHKVYACEVTHQGLSSPVTKSFNRGEC
heavy 2: B2 heavy 2
light 2: B2 light 2
B3 was tested, and the “EC50 (nM) of Antibody 1167 in inducing redirected T cell killing in vitro, HCC1954 cells (B7-H4 density 20039 per cell)” value [11] was 0.8 nM, the “EC50 (nM) of Antibody 1167 in inducing redirected T cell killing in vitro, MDA-MB-453 cells (B7-H4 density 1198 per cell)” value [11] was 8.44 nM and the “EC50 (nM) of Antibody 1167 in inducing redirected T cell killing in vitro, MDA-MB-468 cells (B7-H4 density 83936 per cell)” value [11] was 0.4 nM. The “EC50 (nM) of Antibody 1167 in inducing redirected T cell killing in vitro, MX1 cells (B7-H4 density 108684 per cell)” value [11] was 0.062 nM and the “EC50 (nM) of Antibody 1167 in inducing redirected T cell killing in vitro, T47D cells (B7-H4 density 6133 per cell)” value [11] was 0.54 nM.
